Data: publication PMC9391305

Molecular target: endogenous PKM2 of murine PDA^T and PDA^M cells (mouse (endogenous in PDA^T and PDA^M cells)) (UniProt P52480)
Test: cross-linking

Chain of endogenous PKM2 of murine PDA^T and PDA^M cells, P52480 1-531 (enzyme; other documents disagree on this pair) (P52480 whole entry): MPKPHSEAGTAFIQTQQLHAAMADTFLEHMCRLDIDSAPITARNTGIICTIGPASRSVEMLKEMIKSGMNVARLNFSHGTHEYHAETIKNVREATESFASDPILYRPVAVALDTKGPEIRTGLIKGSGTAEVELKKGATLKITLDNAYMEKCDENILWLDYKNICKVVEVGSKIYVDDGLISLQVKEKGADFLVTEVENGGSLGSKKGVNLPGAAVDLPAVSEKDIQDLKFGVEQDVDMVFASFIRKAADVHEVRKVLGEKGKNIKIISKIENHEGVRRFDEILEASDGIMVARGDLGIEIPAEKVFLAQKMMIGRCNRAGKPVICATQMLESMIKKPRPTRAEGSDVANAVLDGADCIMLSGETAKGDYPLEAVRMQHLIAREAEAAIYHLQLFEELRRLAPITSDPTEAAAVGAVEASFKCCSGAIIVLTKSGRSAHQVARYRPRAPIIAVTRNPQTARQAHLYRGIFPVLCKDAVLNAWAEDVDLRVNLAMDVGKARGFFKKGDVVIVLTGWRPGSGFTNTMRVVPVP

stoichiometry N: 4
Substance: endogenous PKM2 of murine PDA^T and PDA^M cells, P52480 1-531 (enzyme; other documents disagree on this pair)
